Experimental findings from paper PMC5839504 (Cell, 2017) are described below.

The target of test [1] is T1, S. cerevisiae Ku80vWA (residues 2-200) (S. cerevisiae, UniProt Q04437 2-200).
T1 sequence (looked up): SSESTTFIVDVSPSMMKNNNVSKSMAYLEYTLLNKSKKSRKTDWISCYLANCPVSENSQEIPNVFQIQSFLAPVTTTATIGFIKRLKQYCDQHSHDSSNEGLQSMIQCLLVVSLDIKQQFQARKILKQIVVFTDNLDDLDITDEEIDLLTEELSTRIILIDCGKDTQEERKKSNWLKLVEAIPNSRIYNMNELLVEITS
The test can be described thus: ITC. (Isothermal titration calorimetry measures the heat released or taken up as one component is titrated into another.)

Test [2] addresses KlCdc13EBM-N (KlCdc13 residues 213-222) (Kluyveromyces lactis). The test can be described thus: ITC.
Test [3] concerns the target K. lactis Cdc13EBM (KlCdc13 residues 213-240) (Kluyveromyces lactis). The test can be described thus: ITC.
Test [4] has as its target T2, S. cerevisiae Ku70/80 heterodimer (S. cerevisiae, UniProt P32807 1-602; Q04437 1-629).
T2 sequence (looked up) 1: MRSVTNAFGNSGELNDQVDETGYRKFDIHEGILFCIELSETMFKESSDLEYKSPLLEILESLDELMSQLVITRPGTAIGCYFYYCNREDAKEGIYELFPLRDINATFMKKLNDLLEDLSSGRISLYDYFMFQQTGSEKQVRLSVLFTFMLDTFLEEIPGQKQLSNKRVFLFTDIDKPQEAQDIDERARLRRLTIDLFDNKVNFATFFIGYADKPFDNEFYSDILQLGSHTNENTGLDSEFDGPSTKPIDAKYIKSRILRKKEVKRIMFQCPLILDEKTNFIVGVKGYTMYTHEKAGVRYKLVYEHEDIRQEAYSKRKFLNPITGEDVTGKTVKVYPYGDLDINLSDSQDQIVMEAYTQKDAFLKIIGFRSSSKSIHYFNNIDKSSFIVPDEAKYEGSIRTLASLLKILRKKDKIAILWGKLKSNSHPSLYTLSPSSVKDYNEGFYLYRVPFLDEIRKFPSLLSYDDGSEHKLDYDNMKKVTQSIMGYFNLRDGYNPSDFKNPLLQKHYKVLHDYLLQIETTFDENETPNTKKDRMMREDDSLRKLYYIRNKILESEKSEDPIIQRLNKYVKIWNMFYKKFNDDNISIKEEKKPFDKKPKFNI
T2 sequence (looked up) 2: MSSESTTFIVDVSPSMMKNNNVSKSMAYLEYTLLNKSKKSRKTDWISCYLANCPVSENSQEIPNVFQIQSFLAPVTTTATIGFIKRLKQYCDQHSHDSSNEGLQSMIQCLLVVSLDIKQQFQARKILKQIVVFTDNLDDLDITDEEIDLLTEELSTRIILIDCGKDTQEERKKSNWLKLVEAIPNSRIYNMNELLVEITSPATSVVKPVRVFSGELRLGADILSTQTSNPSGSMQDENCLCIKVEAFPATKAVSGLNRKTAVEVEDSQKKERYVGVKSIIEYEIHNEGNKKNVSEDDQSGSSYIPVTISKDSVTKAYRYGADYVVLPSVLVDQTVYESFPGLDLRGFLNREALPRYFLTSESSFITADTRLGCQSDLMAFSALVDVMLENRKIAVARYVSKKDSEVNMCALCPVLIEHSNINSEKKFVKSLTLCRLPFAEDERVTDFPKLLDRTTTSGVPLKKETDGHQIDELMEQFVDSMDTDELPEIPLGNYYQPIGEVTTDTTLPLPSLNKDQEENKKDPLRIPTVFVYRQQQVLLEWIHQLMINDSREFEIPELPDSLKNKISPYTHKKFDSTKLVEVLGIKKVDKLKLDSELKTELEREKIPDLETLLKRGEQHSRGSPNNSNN
The test can be described thus: pull-down.

By Kd is commonly meant a measure of binding affinity in units of concentration. A higher Kd goes with a looser complex.

B1: S. cerevisiae Sir4KBM (residues 100-115) (peptide, UniProt P11978 100-115, looked up)
chain: EKISNSKLLSLLRSKT
Take B1: in test [1], binding was put at a Kd of 5.1 µM.

B2: Sir4KBM L108R (peptide, UniProt P11978 100-115, looked up)
chain: EKISNSKLRSLLRSKT
Turning to B2, the binding result in test [1] was “binds”.

B3: N-terminal domain of K. lactis Est1 (KlEst1, residues 2-600) (domain or fragment)
chain: DQKLNTDLQETFSGFQKQLQSVLETDFFRDDSLMKGAIQMIHSKIMQMLLQSLIPEGLHQDITTDTGSKKSEIRSSDAHRILDLTWKHVHYPIFKYFQNWRNRNVAEGSRPNYAGHRQLNSILQKIFPQIHKLYYSTLELIFANYNLTALIPSDTRSKLNISTKKLNDDASNVLKPEDSFSIDCVMASQRCLLYIGCSQRYKIIMEHLSDRYQQADFQKPLRYLDIASTIVPSVGETFLQRGICYTHTKNFGNAAYQFVRSSLSRLPSDAGIPNFTNLLGDPNGSLFKKLLNSLDDLKVQETIKKRIINMEIMEFYILPLIGSHIFPQTWKNNRHSDRLKHFQTLLFDKIEIRYIKNISMIFQDLILLIGSFHMYQMINGVSSNTTSSAATIMPNDKTLMNGNGSANSINNSGNSNIRSIQSETKFLEFIFKFFTHLIDKVIMKEFKNCEMFQYLAMARIMMCWIKSHKNVLKFAHRSTSFCQSMVNLTNELLSSNDLSISFEHLHRPTRDYFYEEDIMLKEFGPTKFTLSDFNDEKLLSMDNLPDRLVGKSKNKLTAKEEHSSRVQVLVYSNKKFLEKNCCGFKLDTEKKRYVHTAVK
For B3, the Kd is 15.3 µM in test [2] and 5.9 µM in test [3].

B4: Sir4KBM (GST pull-down) (peptide, UniProt P11978 100-115, looked up)
chain: EKISNSKLLSLLRSKT
Consider B4, for which the binding result in test [4] is given as “binds”.
